What was measured:
[1] = biological target: Nucleolysin TIA-1 (endogenous mouse TIA1) (mouse) (UniProt P52912); assay: TIA1 IP-MS, tau KO 1 cortex
[2] = biological target: Nucleolysin TIA-1 (endogenous mouse TIA1) (mouse) (UniProt P52912); assay: TIA1 IP-MS, WT2 cortex
[3] = biological target: Nucleolysin TIA-1 (endogenous mouse TIA1) (mouse) (UniProt P52912); assay: TIA1 IP-MS, tau KO 2 cortex
[4] = biological target: Nucleolysin TIA-1 (endogenous mouse TIA1) (mouse) (UniProt P52912); assay: TIA1 IP-MS, tau KO 3 cortex
[5] = biological target: Nucleolysin TIA-1 (endogenous mouse TIA1) (mouse) (UniProt P52912); assay: TIA1 IP-MS, WT3 cortex
[6] = biological target: Nucleolysin TIA-1 (endogenous mouse TIA1) (mouse) (UniProt P52912); assay: TIA1 IP-MS, WT1 cortex

Chain of UniProt P52912 (P52912 whole entry): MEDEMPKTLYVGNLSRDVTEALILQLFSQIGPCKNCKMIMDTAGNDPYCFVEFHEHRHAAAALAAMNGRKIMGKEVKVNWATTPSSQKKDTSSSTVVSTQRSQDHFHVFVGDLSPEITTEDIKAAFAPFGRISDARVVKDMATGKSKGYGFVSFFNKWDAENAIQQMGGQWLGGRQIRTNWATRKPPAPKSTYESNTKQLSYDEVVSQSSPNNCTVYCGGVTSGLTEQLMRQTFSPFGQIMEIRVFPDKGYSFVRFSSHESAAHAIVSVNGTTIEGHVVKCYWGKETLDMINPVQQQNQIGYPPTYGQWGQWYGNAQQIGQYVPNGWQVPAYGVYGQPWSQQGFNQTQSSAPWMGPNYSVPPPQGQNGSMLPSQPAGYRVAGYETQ

Row | Substance | total ion current (normalized to TIA1 = 1000) [1] | total ion current (normalized to TIA1 = 1000) [2] | total ion current (normalized to TIA1 = 1000) [3] | total ion current (normalized to TIA1 = 1000) [4] | total ion current (normalized to TIA1 = 1000) [5] | total ion current (normalized to TIA1 = 1000) [6]
1 | 26S proteasome non-ATPase regulatory subunit 8 (from UniProt Q9CX56 1-353) | 4.11 | 0 | 0 | 0 | 0 | 80.3
2 | AP-2 complex subunit alpha-2 (from UniProt P17427 1-938) | 0 | 128 | 186 | 0 | 68.8 | 0
3 | ATP synthase subunit O, mitochondrial (from UniProt Q9DB20 24-213) | 0 | 375 | 0 | 0 | 0 | 0
4 | Acetyl-CoA acetyltransferase, mitochondrial (from UniProt Q8QZT1 31-424) | 0 | 175 | 70.3 | 0 | 18.1 | 0
5 | Aconitate hydratase, mitochondrial (from UniProt Q99KI0 28-780) | 0 | 818 | 421 | 0 | 164 | 0
6 | Amphiphysin (from UniProt Q7TQF7 1-686) | 0 | 113 | 0 | 0 | 0 | 0
7 | Annexin A7 (from UniProt Q07076 1-463) | 0 | 42.4 | 71.9 | 1120 | 44.8 | 0
8 | Aspartate aminotransferase, cytoplasmic (from UniProt P05201 2-413) | 0 | 204 | 136 | 0 | 17 | 0
9 | CaM kinase-like vesicle-associated protein (from UniProt Q3UHL1 1-512) | 0 | 92.1 | 0 | 0 | 0 | 0
10 | Calcium-binding mitochondrial carrier protein Aralar1 (from UniProt Q8BH59 2-677) | 0 | 181 | 231 | 0 | 21.6 | 0
11 | Centromere protein V (from UniProt Q9CXS4 1-252) | 0 | 234 | 108 | 0 | 106 | 0
12 | Clathrin light chain A (from UniProt O08585 1-235) | 0 | 90.8 | 29 | 0 | 145 | 0
13 | Cleavage and polyadenylation specificity factor subunit 6 (from UniProt Q6NVF9 1-551) | 0 | 147 | 76.2 | 0 | 0 | 0
14 | Cluster of Phosphatidylinositol 5-phosphate 4-kinase type-2 alpha (from UniProt O70172 2-405) | 0 | 75.3 | 6.9 | 0 | 18.8 | 0
15 | Cluster of Ras-related protein Rab-5C (from UniProt P35278 1-216) | 0 | 210 | 213 | 0 | 337 | 0
16 | Cytochrome b-c1 complex subunit 1, mitochondrial (from UniProt Q9CZ13 35-480) | 0 | 1320 | 1030 | 0 | 2460 | 0
17 | Dihydrolipoyl dehydrogenase, mitochondrial (from UniProt O08749 36-509) | 0 | 107 | 31.3 | 0 | 0 | 0
18 | Dihydrolipoyllysine-residue acetyltransferase component of pyruvate dehydrogenase complex, mitochondrial (from UniProt Q8BMF4 86-642) | 0 | 353 | 130 | 0 | 0 | 0

More lines, now with the values ahead:

Row | total ion current (normalized to TIA1 = 1000) [1] | total ion current (normalized to TIA1 = 1000) [2] | total ion current (normalized to TIA1 = 1000) [3] | total ion current (normalized to TIA1 = 1000) [4] | total ion current (normalized to TIA1 = 1000) [5] | total ion current (normalized to TIA1 = 1000) [6] | Substance
19 | 0 | 86 | 15.7 | 0 | 0 | 0 | 28 kDa heat- and acid-stable phosphoprotein (from UniProt Q3UHX2 1-181)
20 | 0 | 52.7 | 0 | 0 | 0 | 0 | 39S ribosomal protein L46, mitochondrial (from UniProt Q9EQI8 1-283)
21 | 0 | 20.2 | 67.1 | 0 | 0 | 0 | ATP-dependent 6-phosphofructokinase, platelet type (from UniProt Q9WUA3 1-784)
22 | 0 | 77 | 28.8 | 0 | 14.5 | 0 | Alpha-actinin-4 (from UniProt P57780 1-912)
23 | 25.8 | 0 | 0 | 0 | 0 | 16.7 | Band 4.1-like protein 2 (from UniProt O70318 2-988)
24 | 0 | 274 | 144 | 0 | 0 | 0 | Calcium-transporting ATPase (from UniProt Q6Q477 1-1205)
25 | 0 | 38.6 | 58.4 | 0 | 50.1 | 0 | Carbonic anhydrase 2 (from UniProt P00920 2-260)
26 | 123 | 0 | 0 | 0 | 0 | 9.46 | Catenin beta-1 (from UniProt Q02248 2-781)
27 | 0 | 58.5 | 45.2 | 0 | 0 | 0 | Clathrin heavy chain 1 (from UniProt Q68FD5 2-1675)
28 | 0 | 74.2 | 31 | 0 | 0 | 0 | Coronin-1A (from UniProt O89053 2-461)
